Test results: PMC7022404

Columns and labels:
[1] = target: Recombinant protein G (PG) from Streptococcus sp. (Streptococcus sp.) (UniProt P19909); assay: QCM-D; PG covalently immobilised (APTES, glutaraldehyde) on a silica-coated QCM-D crystal, deactivated with Tris/ethanolamine, blocked with BSA; trastuzumab 1 ug/mL in 1 x PBS injected; Kelvin-Voigt model for mass and thickness
[2] = target: Linker-protein G (LPG) (Streptococcus sp.); assay: QCM-D; LPG physisorbed on a silica-coated QCM-D crystal, trastuzumab injected, PBS washes between injections; 1 x PBS pH 7.4, room temperature; Kelvin-Voigt model for mass and thickness
[3] = target: Humanized anti-HER2 monoclonal antibody trastuzumab (human); assay: SPR

Humanized anti-HER2 monoclonal antibody trastuzumab
Mass Deposited for Bound Antibody [1]: 451 ng/cm^2
Thickness of Bound Antibody [1]: 7.43 nm
Mass Deposited for Bound Antibody [2]: 1200 ng/cm^2

Recombinant protein G (PG) from Streptococcus sp. (from UniProt P19909 34-562) (natural protein)
Half-Life t1/2 [3]: 83.7 s
Kd [3]: 4.62 nM
koff [3]: 0.00824 s⁻¹
kon [3]: 1.79e+06 M⁻¹ s⁻¹
